# Measured values reported in patent publication US20240229045, “APTAMER FOR SPECIFICALLY RECOGNIZING SOLUBLE ST2 PROTEIN AND APPLICATION OF THE SAME” (BEIJING INSTITUTE OF HEART, LUNG AND BLOOD VESSEL DISEASES, published 2024).
# Experiments:
# [1] = molecular target: T1, soluble ST2 (sST2, IL1RL1 soluble isoform) (Homo sapiens, UniProt Q01638-2 Q01638-2:19-328); test: EMSA; strong binding; room temperature 30 min
# Procedure: According to the experimental formula shown in Table 4, the aptamer was added to the buffer solution and nuclease-free water, heated at 95° C. for 10 minutes, quenched on ice for 10 minutes, and room temperature for 10 minutes.
# The above DNA solution and sST2 protein were slowly mixed to a final volume of 20 μL, and a sample containing only aptamer and no protein was used as a negative control, and incubated with rotation at room temperature for 30 minutes.
# [2] = molecular target: T1, soluble ST2 (sST2, IL1RL1 soluble …); test: fiber-optic fluorescence, sST2 immobilised; 137 mM NaCl, 2.7 mM KCl, phosphate
# T1 sequence (Q01638 other isoform, or with tags, fused parts or gaps): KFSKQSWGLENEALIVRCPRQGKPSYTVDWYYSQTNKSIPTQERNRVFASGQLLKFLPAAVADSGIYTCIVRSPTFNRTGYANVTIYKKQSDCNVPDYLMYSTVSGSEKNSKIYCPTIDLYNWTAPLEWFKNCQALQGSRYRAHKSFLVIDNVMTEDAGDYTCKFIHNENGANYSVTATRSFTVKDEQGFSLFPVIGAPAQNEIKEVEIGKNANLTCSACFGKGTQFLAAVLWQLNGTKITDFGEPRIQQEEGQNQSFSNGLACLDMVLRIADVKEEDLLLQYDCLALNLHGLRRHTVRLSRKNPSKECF
Binder,binding result [1],Kd [2] [nM]
TCCATCCACTCGGGCCCTAGGGCGTGTATGTCCAT (ssDNA) [Apt2],binds,
TCCATCCACTCGGCCTACTAAGGGTTTCGTTCACC (ssDNA) [Apt3],binds,
TCCATCCACTCGGGGCGGGGGCTCGTGCTCTATTTC (ssDNA) [Apt4],,127
TCCATCCACTCGGGGCTAGAAGCCGTGAGAATCTG (ssDNA) [Apt1],binds,
TCCATCCACTCGGCGCCACGCGGTTTCTCCAGATT (ssDNA) [Apt8],binds,
